T1: recombinant human cANGPTL4 (C-terminus fibrinogen-like signaling peptide of angiopoietin-like 4) (human, UniProt Q9BY76 166-406)
T1 construct: also called C-terminus of ANGPTL4
T1 sequence: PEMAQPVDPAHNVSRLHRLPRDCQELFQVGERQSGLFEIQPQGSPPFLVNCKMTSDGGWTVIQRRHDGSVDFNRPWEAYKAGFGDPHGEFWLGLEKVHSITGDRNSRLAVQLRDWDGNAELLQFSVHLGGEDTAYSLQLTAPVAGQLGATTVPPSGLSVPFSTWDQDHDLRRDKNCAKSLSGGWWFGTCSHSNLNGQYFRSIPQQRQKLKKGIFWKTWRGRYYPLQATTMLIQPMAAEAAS


Key:
[1] = target: T1, recombinant human cANGPTL4 (C-terminus …); assay: SPR (Reichert 2SPR), purified recombinant human cANGPTL4
Method: The kinetic binding parameters and affinity of the purified antibodies was determined by surface plasmon resonance (SPR) using Reichert 2SPR machine (Reichert Technologies) and purified recombinant human cANGPTL4 (Table 2).

[2] = target: T1, recombinant human cANGPTL4 (C-terminus …); assay: direct ELISA of hybridoma supernatants

| Binder | Kd [1] [pM] | koff [1] [s⁻¹] | kon [1] [M⁻¹ s⁻¹] | binding result [2] |
| --- | --- | --- | --- | --- |
| Ab-B, monoclonal rat-anti-human cANGPTL4 antibody (antibody, V domains shown) VH: EVQLVESGGGLVQPGRSLKLSCAASGFTFSNYGMAWVRQTPTKGLEWVASISTGGSDTYYRDSVKGRFTISRDNAKNTQYLQMDSLRSEDTATYYCARQGFTEDTDYWGQGVMVTVSS VL: DIQMTQSPSFLSASVGDRVTINCKASQNINKYLNWYQQKLGEAPKRLIYNTNNLQTGIPSRFSGSGSGTDYTLTISSLQPEDFATYFCLQHNSFPGTFGGGTKLELK | 132 | 3.69e-05 | 269000 |  |
| Ab-E, monoclonal rat-anti-human cANGPTL4 antibody (antibody, V domains shown) VH: EVQLVESGGGLVQPGRSMKLSCAASGFTFSSFAMAWVRQAPTKGLEWVASISYDGGNTYYRDSVKGRFTISRDNAKSSLYLQMDSLRSEDTSTYYCASADLIWWYFDFWGPGTMVTVSS VL: DIQMTQSPASLSASLEEIVTITCQASQDIGNWLAWYQQKPGKSPQLLIYGSTSLADGVPSRFSGSRSGTQYSLKISRLQVEDIGIYYCQQASSAPPTFGAGTKLELK | 3740 | 8.07e-05 | 21500 |  |
| Ab-A, monoclonal rat-anti-human cANGPTL4 antibody (antibody, V domains shown) VH: QVQLKESGPGLMQPSETLSLTCTVSGFSLTTNGVGWVRQPLGKGLVWMGTIWAGGSTNYNSAVQSRLSISRDTSKSQVFLKMNSLQPEDTGTYYCARQPFYYYDGIHYTRGYFDYWGQGVMVTVSS VL: DVQMTQSPYNLAASPGESVSINCKASKSISKYLAWYQQKLGKANKLLIYDGSTLQSGIPSRFSGSGSGTDFTLTIRSLEPEDFGLYYCQQHNEYPATFGGGTKLELK |  |  |  | binds |

Next, values leading:

| Kd [1] [pM] | koff [1] [s⁻¹] | kon [1] [M⁻¹ s⁻¹] | binding result [2] | Binder |
| --- | --- | --- | --- | --- |
| 199 | 1.35e-05 | 67800 |  | Ab-C, monoclonal rat-anti-human cANGPTL4 antibody (antibody, V domains shown) VH: EVQLVDSGGGLVQPGRSLKLSCAASGFTFSNYGMAWVRQIPTKGLEWVASISSGGGNTYYRDSVKGRFTISRDNAKNTQYLQMDSLRSEDTATYYCARDPGITGFDYWGQGVMVTVSS VL: DIQMTQSPSFLSASVGDRVTINCKASQNINKYLNWYQQKLGEAPKRLIYNTNTLQTGIPSRFSGSGSGTDYTLTISSLQPEDFATYFCLQHNSFPGTFGPGTTLELK |
| 480 | 3.89e-05 | 81100 |  | Ab-D, monoclonal rat-anti-human cANGPTL4 antibody (antibody, V domains shown, also called Antibody Ab-D) VH: EVQLVESGGGLVQPGRSLKLSCAASGFTFSNYGMAWVRQTPTKGLEWVASISTGGGNTYYRDSVKGRFTISRDNAKNTQYLQMDSLRSEDTATYYCARDSTVDYFDYWGQGVMVTVSS VL: DIQMTQSPSFLSASVGDRVTINCKASQKINKYLNWYQQKLGEAPKRLIYNTNNLQTGIPSRFSGSGSGTDFTLTISSLQPEDFATYCCLQHNSFPGTFGGGTKLELK |

Source: patent US20220389088A1 (UNIVERSITY OF FLORIDA RESEARCH FOUNDATION, published 2022)
